Test results published in PMC8958347.
pKd: −log10 of the molar value.

Assays:
[1] = biological target: Dil labelled LDL (low-density lipoprotein); assay: MST; purified LDLR^Q722* or wild-type LDLR with Dil labelled LDL; Kd model; three replicates
[2] = biological target: Dil labelled LDL (low-density lipoprotein)
[3] = biological target: Dil labelled LDL (low-density lipoprotein); assay: MST; sEV (isolated from supernatant of infected HepG2) with Dil-LDL; Kd model; pH not stated
[4] = biological target: Dil labelled LDL (low-density lipoprotein); assay: MST; sEV^Ad-LDLR-Q722* with Dil-LDL; Kd model; pH 5.5
[5] = biological target: Dil labelled LDL (low-density lipoprotein); assay: MST; sEV^Ad-LDLR-Q722* with Dil-LDL; Kd model; pH 7.4

Row | pKd [1] | uptake of Dil-LDL by Ldlr–/– primary hepatocytes (confocal fluorescence intensity), sEV^Ad-LDLR-Q722* group against the sEV^Ad-LDLR-WT group [2] [fold] | uptake of Dil-LDL by Ldlr–/– primary hepatocytes (confocal fluorescence intensity), sEV^Ad-LDLR-Q722* group against the sEV^Ad-control group [2] [fold] | pKd [3] | pKd [4] | pKd [5] | Substance
1 | 5.10 | – | – | – | – | – | LDLR^Q722* (truncated soluble LDLR, 1-722 amino acids), purified (from UniProt P01130 22-722) (domain or fragment)
2 | – | 3.13 | 2.68 | 7.92 | 7.89 | 5.30 | LDLR^Q722* attached to the surface of small extracellular vesicles (sEV^Ad-LDLR-Q722*) (from UniProt P01130 22-722) (domain or fragment)
3 | 5.15 | – | – | – | – | – | wild-type LDLR (N-terminal residues 1-788) (from UniProt P01130 22-788) (domain or fragment)
